Reference: patent US10213494B2, “Treatment of synucleinopathies” (The Brigham and Women's Hospital, Inc., priority 2007, dated 2019)
Square brackets hold non-standard residues; d marks the D form. Peptide text beside a SMILES is read from it. * marks the point of attachment. Sta = CC(C)C[C@H](N)[C@@H](O)CC(=O)O; Isovaleryl = CC(C)CC(=O)*

B1: N370S: human GBA mutant N370S, created by site-directed mutagenesis, disease-related (protein, UniProt P04062 40-536, looked up, variant N370S)
Lysosomal acid …: ARPCIPKSFGYSSVVCVCNATYCDSFDPPTFPALGTFSRYESTRSGRRMELSMGPIQANHTGTGLLLTLQPEQKFQKVKGFGGAMTDAAALNILALSPPAQNLLLKSYFSEEGIGYNIIRVPMASCDFSIRTYTYADTPDDFQLHNFSLPEEDTKLKIPLIHRALQLAQRPVSLLASPWTSPTWLKTNGAVNGKGSLKGQPGDIYHQTWARYFVKFLDAYAEHKLQFWAVTAENEPSAGLLSGYPFQCLGFTPEHQRDFIARDLGPTLANSTHHNVRLLMLDDQRLLLPHWAKVVLTDPEAAKYVHGIAVHWYLDFLAPAKATLGETHRLFPNTMLFASEACVGSKFWEQSVRLGSWDRGMQYSHSIITSLLYHVVGWTDWNLALNPEGGPNWVRNFVDSPIIVDITKDTFYKQPMFYHLGHFSKFIPEGSQRVGLVASQKNDLDAVALMHPDGSAVVVVLNRSSKDVPLTIKDPAVGFLETISPGYSIHTYLWRRQ
B2: D409H: human GBA mutant D409H, created by site-directed mutagenesis, disease-related (protein, UniProt P04062 40-536, looked up, variant D409H)
Lysosomal acid …: ARPCIPKSFGYSSVVCVCNATYCDSFDPPTFPALGTFSRYESTRSGRRMELSMGPIQANHTGTGLLLTLQPEQKFQKVKGFGGAMTDAAALNILALSPPAQNLLLKSYFSEEGIGYNIIRVPMASCDFSIRTYTYADTPDDFQLHNFSLPEEDTKLKIPLIHRALQLAQRPVSLLASPWTSPTWLKTNGAVNGKGSLKGQPGDIYHQTWARYFVKFLDAYAEHKLQFWAVTAENEPSAGLLSGYPFQCLGFTPEHQRDFIARDLGPTLANSTHHNVRLLMLDDQRLLLPHWAKVVLTDPEAAKYVHGIAVHWYLDFLAPAKATLGETHRLFPNTMLFASEACVGSKFWEQSVRLGSWDRGMQYSHSIITNLLYHVVGWTDWNLALNPEGGPNWVRNFVDSPIIVDITKHTFYKQPMFYHLGHFSKFIPEGSQRVGLVASQKNDLDAVALMHPDGSAVVVVLNRSSKDVPLTIKDPAVGFLETISPGYSIHTYLWRRQ
B3: E235A: human GBA mutant directed at the acid/base catalyst, catalytically inactive (protein, UniProt P04062 40-536, looked up, variant E235A)
Lysosomal acid …: ARPCIPKSFGYSSVVCVCNATYCDSFDPPTFPALGTFSRYESTRSGRRMELSMGPIQANHTGTGLLLTLQPEQKFQKVKGFGGAMTDAAALNILALSPPAQNLLLKSYFSEEGIGYNIIRVPMASCDFSIRTYTYADTPDDFQLHNFSLPEEDTKLKIPLIHRALQLAQRPVSLLASPWTSPTWLKTNGAVNGKGSLKGQPGDIYHQTWARYFVKFLDAYAEHKLQFWAVTAENAPSAGLLSGYPFQCLGFTPEHQRDFIARDLGPTLANSTHHNVRLLMLDDQRLLLPHWAKVVLTDPEAAKYVHGIAVHWYLDFLAPAKATLGETHRLFPNTMLFASEACVGSKFWEQSVRLGSWDRGMQYSHSIITNLLYHVVGWTDWNLALNPEGGPNWVRNFVDSPIIVDITKDTFYKQPMFYHLGHFSKFIPEGSQRVGLVASQKNDLDAVALMHPDGSAVVVVLNRSSKDVPLTIKDPAVGFLETISPGYSIHTYLWRRQ
B4: E340A: human GBA mutant directed at the nucleophile, catalytically inactive (protein, UniProt P04062 40-536, looked up, variant E340A)
Lysosomal acid …: ARPCIPKSFGYSSVVCVCNATYCDSFDPPTFPALGTFSRYESTRSGRRMELSMGPIQANHTGTGLLLTLQPEQKFQKVKGFGGAMTDAAALNILALSPPAQNLLLKSYFSEEGIGYNIIRVPMASCDFSIRTYTYADTPDDFQLHNFSLPEEDTKLKIPLIHRALQLAQRPVSLLASPWTSPTWLKTNGAVNGKGSLKGQPGDIYHQTWARYFVKFLDAYAEHKLQFWAVTAENEPSAGLLSGYPFQCLGFTPEHQRDFIARDLGPTLANSTHHNVRLLMLDDQRLLLPHWAKVVLTDPEAAKYVHGIAVHWYLDFLAPAKATLGETHRLFPNTMLFASAACVGSKFWEQSVRLGSWDRGMQYSHSIITNLLYHVVGWTDWNLALNPEGGPNWVRNFVDSPIIVDITKDTFYKQPMFYHLGHFSKFIPEGSQRVGLVASQKNDLDAVALMHPDGSAVVVVLNRSSKDVPLTIKDPAVGFLETISPGYSIHTYLWRRQ
B5: L444P: human GBA mutant L444P, created by site-directed mutagenesis, disease-related (protein, UniProt P04062 40-536, looked up, variant L444P)
Lysosomal acid …: ARPCIPKSFGYSSVVCVCNATYCDSFDPPTFPALGTFSRYESTRSGRRMELSMGPIQANHTGTGLLLTLQPEQKFQKVKGFGGAMTDAAALNILALSPPAQNLLLKSYFSEEGIGYNIIRVPMASCDFSIRTYTYADTPDDFQLHNFSLPEEDTKLKIPLIHRALQLAQRPVSLLASPWTSPTWLKTNGAVNGKGSLKGQPGDIYHQTWARYFVKFLDAYAEHKLQFWAVTAENEPSAGLLSGYPFQCLGFTPEHQRDFIARDLGPTLANSTHHNVRLLMLDDQRLLLPHWAKVVLTDPEAAKYVHGIAVHWYLDFLAPAKATLGETHRLFPNTMLFASEACVGSKFWEQSVRLGSWDRGMQYSHSIITNLLYHVVGWTDWNLALNPEGGPNWVRNFVDSPIIVDITKDTFYKQPMFYHLGHFSKFIPEGSQRVGLVASQKNDPDAVALMHPDGSAVVVVLNRSSKDVPLTIKDPAVGFLETISPGYSIHTYLWRRQ

Each molecule was assayed on α-synuclein protein (wild-type, human) in MES23.5 cells (assay: Sandwich ELISA of intracellular α-synuclein in MES23.5 cells co-transfected with wild-type human SNCA cDNA and lysosomal enzyme cDNA). Conditions: GBA variant plasmid 5 μg per 10 cm dish + 0.5 μg SNCA cDNA, 24 hours after transfection, no prosaposin; mean+/−sem.
Format: cell-based
Description: Sera from six rabbits were raised and affinity-purified at Open Biosystems, Inc. (openbiosystems.com) against recombinant, full-length human αS. Recombinant αS had been HPLC- and MS-characterized and subjected to amino acid composition and protein concentration analyses. For ELISA, 384-well MaxiSorp plates (Nunc, Inc) were coated with 50 μl/well capturing polyclonal Ab (hSA-2) diluted in coating buffer (NaHCO3 with 0.2% NaN3, pH 9.6). Following washes with PBS/0.05% Tween-20 (PBS-T), plates were blocked for 2 hours at 37° C. in blocking buffer (1.125% fish skin gelatin; PBS-T). After 4 washes, samples were loaded and incubated at 4° C. for 12 hours. Biotinylated Syn-1 mAb (as the assaying Ab) was generated using 200 μg Sulfo-NHS-LC Biotin (Pierce), diluted in blocking buffer and added to the plate for 2 hours at 37° C. Following 4 washes, ExtrAvidin phosphatase (Sigma) diluted in blocking buffer was applied for 1 hr at 37° C. Color development was carried out by using Fast-p-Nitrophenyl Phosphate (Sigma) and monitored kinetically at OD 405 nm every 5 minutes for up to 60 minutes.
To optimize a ‘DNA: LIPOFECTAMINE® 2000’ ratio with low cell toxicity, MES23.5 cells were transfected with either 0.25, 0.5 or 1 μg αS-encoding, wild-type, human SNCA cDNA plus empty vector cDNA up to a total of 5.5 μg DNA per 10 cm dish. 24 hours after transfection, cell lysates were harvested as described above. For serial dilutions of cell lysates, blocking buffer containing 0.5% lysate from vector-transfected wells was used as diluent, which was also used to create the blank and the corresponding standard curve of recombinant human αS. Saturation kinetics were examined for identification of time point(s) where standards and sample dilutions were in the log phase.
MES cells were transfected with 0.5 μg per 10 cm dish of αS-encoding SNCA cDNA-carrying plasmid, plus 5 μg per 10 cm dish of wild-type or mutant, human GBA-encoding plasmid. The GBA variants used were wild type, N370S, D409H, L444P, E235A, and E340A. These 5 GBA mutants were created by site-directed mutagenesis, using the Quickchange® kit (Stratagene), and sequence-verified. The N370S, D409H and L444P are known to occur (in the homozygous or compound heterozygous state) in Gaucher disease in the heterozygous state in Parkinson Disease patients and/or patients with dementia with Lewy bodies. The E235A and E340A mutant GBA proteins are not known to occur in people.
24 hours after transfection, MES cells were lysed as described above and all lysates were analyzed by ELISA. […] This is in contrast to the result observed in Example 5 above. The observed discrepancy can reflect the differences in total DNA transfected in the two paradigms (FIG. 2B; FIG. 2C versus FIG. 4), thereby leading to changes in the DNA:LIPOFECTAMINE® 2000 ratio, and in the role of co-expressed prosaposin (saposin C). It is therefore conceivable that wild-type GBA can have variable effects on αS levels in these MES23.5 cells, depending on the rate of αS import into lysosomes and the composition as well as activation state of more than one lysosomal enzyme.
MES23.5 cells were transfected with 0.5 μg per 10 cm dish of an αS-encoding, wild-type, human SNCA cDNA-carrying plasmid (referred to as MES-hSNCA WT cells in the Western blot shown in FIG. 6), plus either 1.25, 2.5 or 5 μg per 10 cm dish of a human Cathepsin D-encoding CTSD cDNA plasmid, which was purchased from OriGene Technologies, Inc., and was under the control of a CMV promoter. The Cathepsin D clone was fully sequence-verified after isolation and maxiprep. Each transfection arm was balanced with empty vector DNA up to a total of 5.5 μg DNA per 10 cm dish. 24 hours after transfection, cells were lysed, and the resulting lysates were analyzed by the sandwich ELISA described herein. […]

**Q.** Which “intracellular α-synuclein level, % of vector cDNA control levels” value (“intracellular α-synuclein level, %” below) does the source give for B1 here?
**A.** The value was 121.1+/−4.98%.

**Q.** Which “intracellular α-synuclein level, %” value does the source give for B2 here?
**A.** The value was 269.4+/−56.6%.

**Q.** For B3, which “intracellular α-synuclein level, %” value is on record?
**A.** The value was 231.0+/−37.14%.

**Q.** With B4 as the molecule, how does the “intracellular α-synuclein level, %” value read?
**A.** The value was 156.4+/−19.65%.

**Q.** With B5 as the molecule, how does the “intracellular α-synuclein level, %” value read?
**A.** The value was 172.7+/−23.02%.

Same assay, conditions: pepstatin A included in the cell lysis buffer

**Q.** Which “amount of αS detected in the lysate” value does the source give for `CC(C)CC(=O)N[C@H](C(=O)N[C@H](C(=O)N[C@@H](CC(C)C)[C@@H](O)CC(=O)N[C@@H](C)C(=O)N[C@@H](CC(C)C)[C@@H](O)CC(=O)O)C(C)C)C(C)C` [pepstatin A, reference compound] (Isovaleryl-VV[Sta]A[Sta]-OH) here?
**A.** The value was “did not change the amount of αS detected in the lysate”.
